From publication PMC8892091
Changes are numbered by the printed parent chain. Like-named read-outs stand apart in the source and are kept apart here.

B1: dsDNA1 (dsDNA)
DNA 1: AACTTCGTGCAGGCATGGGATCTTGTCTACT
DNA 2: AGTAGACAAGATCCCATGCCTGCACGAAGTT
B2: Bulge DNA2 (dsDNA)
DNA 1: B1 DNA 1
DNA 2: AGTAGACAACATGCCTGCACGAAGTT
B3: Bubble DNA1 (dsDNA)
DNA 1: B1 DNA 1
DNA 2: B1 DNA 2 with A11C, T12G, C13A
B4: Bulge DNA1 (dsDNA)
DNA 1: B1 DNA 1
DNA 2: AGTAGA
DNA 3: CATGCCTGCACGAAGTT

Experiments:
[1] = target: T1, ALKBH6 WT (Homo sapiens, UniProt Q3KRA9 1-238); assay: MST
[2] = target: ALKBH6ΔFlip3 (Homo sapiens, UniProt Q3KRA9 1-238, del139-158); assay: MST
[3] = target: T2, MBP-ALKBH6 WT (Homo sapiens, UniProt Q3KRA9 1-238); assay: EMSA
[4] = target: T1, ALKBH6 WT; assay: MST; remark: listed apart in the source
[5] = target: T2, MBP-ALKBH6 WT; assay: competition
[6] = target: MBP-ALKBH6ΔFlip3 (Homo sapiens, UniProt Q3KRA9 1-238, del139-158); assay: EMSA
[7] = target: T1, ALKBH6 WT; assay: MST; remark: listed apart in the source
[8] = target: MBP-ALKBH6 R225A/R228A (Homo sapiens, UniProt Q3KRA9 1-238, R225A;R228A); assay: EMSA

Binder	binding result [3]	binding result [7]	other results
GATCCAGTGATCCAGT (ssDNA) [ssDNA3 (FAM)]	–	–	binding result [1]: binds; binding result [2]: binds
AAAAAAAAAAAAAAAAAAAAAAAAAAAAAA (ssRNA) [poly(A) 30 nt]	binds	–	binding result [4]: binds
GGATCAACAGTGCACAGTT (ssDNA) [ssDNA1 (unlabelled)]	–	–	binding result [5]: binds
B1	no binding	–	binding result [6]: binds
B2	–	binds	–
B3	–	binds	–
B4	–	binds	–
GGATCAACAGTGCACAGTT (ssDNA) [ssDNA1 (FAM)]	binds	–	binding result [8]: binds
